Residue numbers refer to the chain shown, from its start.
T1: Human CD39 antigen (human, UniProt P49961 38-478)
T1 construct: Antigen used as analyte in SPR; also called ENTPD1
T1 sequence (looked up): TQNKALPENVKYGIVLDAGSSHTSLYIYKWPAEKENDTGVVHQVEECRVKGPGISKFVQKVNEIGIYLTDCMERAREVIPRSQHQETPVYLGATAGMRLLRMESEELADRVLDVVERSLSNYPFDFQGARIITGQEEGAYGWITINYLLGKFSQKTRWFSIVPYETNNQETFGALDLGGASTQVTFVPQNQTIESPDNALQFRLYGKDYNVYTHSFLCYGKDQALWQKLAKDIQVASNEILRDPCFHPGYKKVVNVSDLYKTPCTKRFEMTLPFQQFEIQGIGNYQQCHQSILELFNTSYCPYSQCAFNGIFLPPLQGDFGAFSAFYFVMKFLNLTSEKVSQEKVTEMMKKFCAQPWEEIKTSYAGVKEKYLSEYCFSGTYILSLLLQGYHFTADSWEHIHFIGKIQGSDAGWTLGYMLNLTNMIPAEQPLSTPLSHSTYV

T2: Cynomolgus CD73 antigen (cynomolgus, UniProt A0A2K5V5U7 27-547)
T2 construct: Antigen used as analyte in SPR
T2 sequence: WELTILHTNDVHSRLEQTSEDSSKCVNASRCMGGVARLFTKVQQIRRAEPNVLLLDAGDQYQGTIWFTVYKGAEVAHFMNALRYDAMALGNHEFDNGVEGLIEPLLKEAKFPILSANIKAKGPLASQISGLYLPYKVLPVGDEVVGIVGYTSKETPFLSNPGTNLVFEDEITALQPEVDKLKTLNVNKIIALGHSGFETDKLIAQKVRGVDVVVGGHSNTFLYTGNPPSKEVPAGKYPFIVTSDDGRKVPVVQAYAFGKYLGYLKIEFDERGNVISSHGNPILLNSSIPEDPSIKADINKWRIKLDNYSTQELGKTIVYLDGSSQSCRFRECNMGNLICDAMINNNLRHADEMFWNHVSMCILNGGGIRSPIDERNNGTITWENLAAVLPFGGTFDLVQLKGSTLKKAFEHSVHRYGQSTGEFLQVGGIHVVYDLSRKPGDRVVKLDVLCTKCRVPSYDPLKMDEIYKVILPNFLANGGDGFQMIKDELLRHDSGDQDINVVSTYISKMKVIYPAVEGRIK

T3: Human CD73 antigen (human, UniProt P21589 27-547, limits assumed)
T3 construct: Antigen used as analyte in SPR; also called NT5E
T3 sequence (looked up): T2 sequence with T199M, A350T, I466V

T4: Cynomolgus CD39 antigen (cynomolgus, UniProt A0A7N9DGH8 38-478)
T4 construct: Antigen used as analyte in SPR
T4 sequence: T1 sequence (looked up) with V10I, F57Y, V184I, I193T, I292V, K331N, A354S

B1: CD39/CD73 bispecific antibody 700035 (CD39-VHH-CD73-IgG) (bispecific antibody)
heavy: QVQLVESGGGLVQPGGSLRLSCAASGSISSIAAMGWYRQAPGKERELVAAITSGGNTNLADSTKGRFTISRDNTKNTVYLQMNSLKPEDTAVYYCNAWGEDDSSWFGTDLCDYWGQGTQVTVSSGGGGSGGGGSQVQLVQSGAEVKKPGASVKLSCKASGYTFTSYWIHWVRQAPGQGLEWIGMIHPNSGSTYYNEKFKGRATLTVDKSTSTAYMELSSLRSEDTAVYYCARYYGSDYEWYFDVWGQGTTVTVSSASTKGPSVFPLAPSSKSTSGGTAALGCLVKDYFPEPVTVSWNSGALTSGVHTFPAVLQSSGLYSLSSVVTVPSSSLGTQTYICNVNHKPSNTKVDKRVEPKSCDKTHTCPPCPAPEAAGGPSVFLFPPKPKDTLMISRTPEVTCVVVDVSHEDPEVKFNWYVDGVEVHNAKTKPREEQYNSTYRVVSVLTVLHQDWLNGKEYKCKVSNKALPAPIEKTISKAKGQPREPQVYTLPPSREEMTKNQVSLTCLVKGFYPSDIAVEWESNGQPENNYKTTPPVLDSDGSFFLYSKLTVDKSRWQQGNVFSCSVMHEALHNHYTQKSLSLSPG
light: DIQMTQSPSSMSASVGDRVTITCKASQNVRTAVVWYQQKPGKAPKALIYLASNRHTGVPDRFSGSGSGTDFTLTISSLQPEDFATYFCLQHWNYPYTFGQGTKLEIKRTVAAPSVFIFPPSDEQLKSGTASVVCLLNNFYPREAKVQWKVDNALQSGNSQESVTEQDSKDSTYSLSSTLTLSKADYEKHKVYACEVTHQGLSSPVTKSFNRGEC
B2: CD39/CD73 bispecific antibody 700038 (CD39-VHH-CD73-IgG) (bispecific antibody)
heavy: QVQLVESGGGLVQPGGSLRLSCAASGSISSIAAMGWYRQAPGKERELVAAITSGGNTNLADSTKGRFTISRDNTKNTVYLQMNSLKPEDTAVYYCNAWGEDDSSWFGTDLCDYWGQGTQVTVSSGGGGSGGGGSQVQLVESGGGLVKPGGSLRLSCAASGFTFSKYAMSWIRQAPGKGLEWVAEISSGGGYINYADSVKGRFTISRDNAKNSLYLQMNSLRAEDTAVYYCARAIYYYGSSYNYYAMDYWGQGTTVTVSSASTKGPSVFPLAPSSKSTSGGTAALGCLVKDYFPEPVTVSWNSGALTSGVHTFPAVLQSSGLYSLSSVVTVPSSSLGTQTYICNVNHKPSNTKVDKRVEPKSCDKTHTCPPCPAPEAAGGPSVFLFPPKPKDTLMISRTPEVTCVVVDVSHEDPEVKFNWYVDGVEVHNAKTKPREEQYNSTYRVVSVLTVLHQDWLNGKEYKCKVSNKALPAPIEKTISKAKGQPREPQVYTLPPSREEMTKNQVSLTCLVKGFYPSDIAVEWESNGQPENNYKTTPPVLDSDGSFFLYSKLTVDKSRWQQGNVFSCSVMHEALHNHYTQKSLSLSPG
light: DIQMTQSPSSLSASVGDRVTITCRASQDVGTAEAWYQQKPGKAPKLLIYWASTRHTGVPSRFSGSGSGTDFTLTISSLQPEDFATYYCQQYSSYPLTFGQGTKLEIKRTVAAPSVFIFPPSDEQLKSGTASVVCLLNNFYPREAKVQWKVDNALQSGNSQESVTEQDSKDSTYSLSSTLTLSKADYEKHKVYACEVTHQGLSSPVTKSFNRGEC

How the values were obtained:
Assay in all cases: SPR (Biacore 8K), species cross test, antibody captured on anti-human capture CM5 chip, antigen as analyte, 1:1 model
[1] = target: T1, Human CD39 antigen
Experimental: (§1) The experimental method is as follows:
(§2) An Anti-Human Capture-CM5 chip (GE, #BR-1005-30) was prepared using coupling methods of a Human Antibody Capture Kit (GE, #BR-1008-39) and an amino coupling kit (GE, BR-1000-50). The chip was equilibrated at room temperature for about 20-30 min and loaded into a Biacore 8K instrument. The antigen and antibody were diluted to an experimental working concentration using an equilibration buffer. The antigen was diluted with an equilibrium buffer to 50 nM, and then diluted three-fold for seven concentration gradients, and two zero concentrations (i.e., the equilibrium buffer) and one repeat concentration (typically the lowest concentration repeat) were set. Experimental analysis was performed on 10 antigen concentrations (2 zero concentrations, 7 gradient concentrations, and 1 repeated concentration) in a cyclic manner according to an order of antibody, antigen, and regeneration. The antigen injection flow rate was 30 μL/min, the binding time was 120 s, and the dissociation time was 600 s. Following the analysis, the data was analyzed using the corresponding analysis program to confirm that there was no obvious reference binding. Using Kinetics and a 1:1 binding model, the data was fit to obtain the kinetic related parameters Ka, Kd, and KD values of the bispecific antibodies.

[2] = target: T2, Cynomolgus CD73 antigen
Experimental: as §1, §2

[3] = target: T3, Human CD73 antigen
Experimental: as §1, §2

[4] = target: T4, Cynomolgus CD39 antigen
Experimental: as §1, §2

Binder	Kd [1] [nM]	koff [1] [s⁻¹]	kon [1] [M⁻¹ s⁻¹]	Kd [2] [nM]	koff [2] [s⁻¹]	kon [2] [M⁻¹ s⁻¹]	Kd [3] [nM]	koff [3] [s⁻¹]	kon [3] [M⁻¹ s⁻¹]	Kd [4] [nM]	koff [4] [s⁻¹]	kon [4] [M⁻¹ s⁻¹]
B1	0.0708	9.28e-05	1.31e+06	0.409	0.000342	836000	0.341	0.000319	935000	2.61	0.00161	618000
B2	0.0918	9.54e-05	1.04e+06	0.326	0.000148	456000	0.425	0.000249	587000	2.69	0.00163	606000

Source: patent US20250361314A1 (SHANGHAI HUAOTA BIOPHARMACEUTICAL, published 2025)
